Reference: patent publication US20050020492A1 (MERCK, published 2005)
Like-named read-outs stand apart in the source and are kept apart here. Positions of bridges follow the written chain, without caps; N, C: chain ends. Non-standard residues stand in square brackets, D forms with d. No end group written: not given here. dCit = NC(=O)NCCC[C@@H](N)C(=O)O

B1: SEQ. ID. NO. 34 (D-Cit^6, Asn^10 analog of Ac-hMCH(6-16)-NH2) (peptide)
peptide: Ac-[dCit]CMLNRVYRPC-NH2
modifications: disulfide 2-11 (inferred)
B2: SEQ. ID. NO. 15 (Δ(X^6-Cys^7), Mpr^7 analog of Ac-hMCH(6-16)-NH2) (peptide)
peptide: XMLGRVYRPC
modifications: Ac-Arg^6 segment eliminated; Mpr, des-amino-cysteine (3-mercaptopropionic acid) at position 7 instead of Cys; C-terminal amide; disulfide ring
B3: SEQ. ID. NO. 31 (D-Arg^6, Nle^8, Asn^10 analog of Ac-hMCH(6-16)-NH2) (peptide)
peptide: XCXLNRVYRPC
HELM: PEPTIDE1{[ac].[dR].C.[Nle].L.N.R.V.Y.R.P.C.[am]}$PEPTIDE1,PEPTIDE1,3:R3-12:R3$$$V2.0
SMILES: CCCC[C@@H]1NC(=O)[C@@H](NC(=O)[C@@H](CCCNC(=N)N)NC(C)=O)CSSC[C@@H](C(N)=O)NC(=O)[C@@H]2CCCN2C(=O)[C@H](CCCNC(=N)N)NC(=O)[C@H](Cc2ccc(O)cc2)NC(=O)[C@H](C(C)C)NC(=O)[C@H](CCCNC(=N)N)NC(=O)[C@H](CC(N)=O)NC(=O)[C@H](CC(C)C)NC1=O
B4: SEQ. ID. NO. 14 (Ac-D-Cit^6 analog of Ac-hMCH(6-16)-NH2) (peptide)
peptide: XCMLGRVYRPC
modifications: N-terminal acetyl; D-Cit (D-citrulline) at position 6; C-terminal amide; disulfide cycle
B5: human MCH (peptide)
chain: DFDMLRCMLGRVYRPCWQV
modifications: disulfide 7-16 (inferred)

Legend:
[1] = molecular target: T1, human MCH-2R (human, UniProt Q969V1 1-340); test: SPA, total against non-specific binding (500 nM unlabeled hMCH)
T1 sequence (Q969V1 whole entry): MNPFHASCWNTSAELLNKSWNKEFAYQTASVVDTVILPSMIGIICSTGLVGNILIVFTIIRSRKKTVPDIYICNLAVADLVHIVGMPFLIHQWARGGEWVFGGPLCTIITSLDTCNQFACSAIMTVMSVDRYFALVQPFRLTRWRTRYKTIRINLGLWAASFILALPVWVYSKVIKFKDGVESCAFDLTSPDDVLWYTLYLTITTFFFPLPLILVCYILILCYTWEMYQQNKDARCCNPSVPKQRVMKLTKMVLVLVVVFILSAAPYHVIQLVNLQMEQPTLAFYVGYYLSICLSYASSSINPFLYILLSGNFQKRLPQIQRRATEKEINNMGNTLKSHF

[2] = molecular target: T2, human MCH-1R (human, UniProt Q99705 1-353); test: as above
T2 sequence (Q99705 whole entry): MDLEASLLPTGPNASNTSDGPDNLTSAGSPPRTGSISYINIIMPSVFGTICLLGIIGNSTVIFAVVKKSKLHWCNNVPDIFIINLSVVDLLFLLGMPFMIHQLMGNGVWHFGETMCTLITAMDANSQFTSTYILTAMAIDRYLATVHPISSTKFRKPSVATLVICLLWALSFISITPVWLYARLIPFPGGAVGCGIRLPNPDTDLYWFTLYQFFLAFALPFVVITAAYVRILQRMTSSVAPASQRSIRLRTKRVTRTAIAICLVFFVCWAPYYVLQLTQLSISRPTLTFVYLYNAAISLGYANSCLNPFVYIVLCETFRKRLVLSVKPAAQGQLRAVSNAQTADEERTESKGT

[3] = molecular target: T1, human MCH-2R; test: cell-based or functional assay
[4] = molecular target: T2, human MCH-1R; test: cell-based or functional assay
[5] = molecular target: T2, human MCH-1R; test: SPA, displacement of [125I]-[Phe13,Tyr19]-hMCH, CHO/MCH-1R membranes
[6] = molecular target: T2, human MCH-1R; test: as above
Protocol: (§1) After equilibrating at room temperature for 3 hours, the plates were read in a TopCount (Packard, Meriden, Conn.). IC₅₀ calculations were performed using Prism 3.0 (GraphPad. Software, San Diego, Calif.). The IC₅₀ values were measured in three different experiments.

[7] = molecular target: T1, human MCH-2R; test: SPA, displacement of [125I]-[Phe13,Tyr19]-hMCH, MCH-2R membranes
Protocol: as §1

[8] = molecular target: T1, human MCH-2R; test: SPA radioligand binding assay
Protocol: as §1

[9] = molecular target: T2, human MCH-1R; test: SPA radioligand binding assay
Protocol: as §1

[10] = molecular target: T1, human MCH-2R; test: cell-based or functional assay; remark: listed apart in the source
[11] = molecular target: T2, human MCH-1R; test: cell-based or functional assay; remark: listed apart in the source
[12] = molecular target: T2, human MCH-1R; test: ratio of the two SPA IC50s
[13] = molecular target: T1, human MCH-2R; test: cell-based or functional assay; remark: listed apart in the source
[14] = molecular target: T2, human MCH-1R; test: cell-based or functional assay; remark: listed apart in the source
[15] = molecular target: T1, human MCH-2R; test: cell-based or functional assay; remark: listed apart in the source
[16] = molecular target: T2, human MCH-1R; test: cell-based or functional assay; remark: listed apart in the source
[17] = molecular target: T2, human MCH-1R; test: SPA, displacement of [125I]-[Phe13,Tyr19]-hMCH, CHO/MCH-1R membranes; remark: listed apart in the source
Protocol: as §1

[18] = molecular target: T1, human MCH-2R; test: SPA, displacement of [125I]-[Phe13,Tyr19]-hMCH, MCH-2R membranes; remark: listed apart in the source
Protocol: as §1

[19] = molecular target: T2, human MCH-1R; test: ratio of the two SPA IC50s; remark: listed apart in the source
Protocol: as §1

[20] = molecular target: T1, human MCH-2R; test: cell-based or functional assay; remark: listed apart in the source
[21] = molecular target: T2, human MCH-1R; test: cell-based or functional assay; remark: listed apart in the source
[22] = molecular target: T1, human MCH-2R; test: SPA, displacement of [125I]-[Phe13,Tyr19]-hMCH, MCH-2R membranes; remark: listed apart in the source
Protocol: as §1

Molecule	IC50 [6] [nM]	IC50 [7] [nM]	Activation %, aequorin bioluminescence [10] [%]	EC50, aequorin bioluminescence [10] [nM]	Activation %, aequorin bioluminescence [11] [%]	EC50, aequorin bioluminescence [11] [nM]	Activation %, aequorin bioluminescence [15] [%]	EC50, aequorin bioluminescence [15] [nM]	Activation %, aequorin bioluminescence [16] [%]	IC50 [18] [nM]	further results
[^125I]-[Phe^13Tyr^19]-hMCH (peptide)											specific binding window [1]: 3 ×; specific binding window [2]: > 6 ×
B1											Activation %, aequorin bioluminescence [3]: 8%; EC50, aequorin bioluminescence [3]: > 10000 nM; Activation %, aequorin bioluminescence [4]: 110%; EC50, aequorin bioluminescence [4]: 1460 nM; IC50 [5]: 8.3 nM
B2	7	3500	47	3100	92	610					IC50 [8]: > 3000 nM; fold lower binding affinity than Ac-hMCH(6-16)-NH2 [9]: ~5 fold; Selectivity 2/1 (MCH-2R/MCH-1R EC50 activity ratio) [11]: 5 ratio; Selectivity 2/1 (MCH-2R/MCH-1R IC50 ratio) [12]: 500 ratio; EC50 [13]: > 3000 nM; fold lower activity than Ac-hMCH(6-16)-NH2 [14]: ~30 fold
B3							23	5500	130	1600	EC50, aequorin bioluminescence [16]: 240 nM; Selectivity 2/1 (MCH-2R/MCH-1R EC50 activity ratio) [16]: 23 ratio; IC50 [17]: 0.28 nM; Selectivity 2/1 (MCH-2R/MCH-1R IC50 ratio) [19]: 5700 ratio
B4	3	134	68	310	91	920					
B5		0.5	100	30.7	100		100	30.7	100	0.5	Activation %, aequorin bioluminescence [20]: 100%; EC50, aequorin bioluminescence [20]: 30.7 nM; Activation %, aequorin bioluminescence [21]: 100%; IC50 [22]: 0.5 nM
